This series can be described thus: label from the status in PepcDB records.
As for “MKSLSEHVDFSESKTGNSSSESETGQTLIFLLADLAQRQQIDNTLQSFLNESNAEEILLVANIRCADDEVWLRKYCARFPSVNAILNRRAKSATVLEAQGRWLARYRSQVVLSVDCDESGVKILRKVLPFFTPPVAMEMQKSTLSCQPGEQGLTLIIPAHDCDLYLTDCLASALVIESDKTLVVVDDGSLDDTHGVIAGFASQYPEIIDHISICKASGLPAVPRNIGLASVQTDTFGFIDADDWISPGEYTSALYEMQQMSADIATAAGFTRHYPDRTESLLQKCFTIPENEPANVLEGSFFSNIWNRIYARSILLRSGAYFPRTHFSEDFCFSVWSHFYAEKTIQVSVSFYHHRYGRQGSTTDNRAGSGAFSHITEFHRELEMYLADPFMRKALATILRKRMGSFQYTLKLLPPELIQPFKTALQEMLKPLNRYFISDKEPNKRDIATFAALGISDLLYQRPRSKFLGMRNWGRKWLGMYQQLTKRESHENS”, the protein production result is listed as “failed”.
For “MKSLVKVSLAALALAFAVSAYAAEKELIVATDTAFVPFEFKQGDKYVGFDIDLWDAIAKKLDLKYTLKPMDFSGIIPALQTKNVDLALAGITITDERKKAVDFSDGYYNSGLLVMVKADNNDIKSEADLQGKVLAVKSGTGSVDYAKANIKTKDLRQFPNIDNAYLELGTGRADAVLHDTPNILYFIKTAGNGQFKAVGESIKAQQYGVAFPQGSDLREKVNAALKSLKEDGTYAEIYKKWFGVEPK” the value was “failed”; for “MKTASYAQSFSRAAKEYDAYAYLQQTVARELASWIEGMECESILDLGCGTGALWRALRFKPRFFTGVDLSMEMLDLHPQDPAIRLIQSDFNHPSLYEHSYDLIAASSSLQWSRDLAQSFDLIAKSAQNVAFAIFTSESLWEIHDYVDSHSPIPSKERIESLLKERFAGEFELKRYPLSFPSRVAMLSYLKGSGISGGRRLGFAQSK”, “failed”.
For “MKTDLIYGVEDRPPFKDALFAALQHLLAIFVAIITPPLIIASALKLDVEKTSFLVSMSLFASGVSTFIQCRRIGPIGAKLLCIQGTSFSFIGPIIATGLVGGLPLIFGSCIAAAPIEMVVSRTFKYLRNIITPLVSGIVVLLIGLSLIKVGIVSCGGGYSAMDDGSFGSWENLSIAALVLLSVLFFNRCKNKYLRMSSIVFGLCLGYGLAFALGKVNMSALNVEMLMSFNIPQPFKYGIDFNISSFIAIGLVYLITAIEATGDVTANSMISGLPIEGDSYLKRVSGGVMADGFNSLLAGIFNSFPNSIFAQNNGIIQLTGVASRYVGYYIAAMLVLLGLFPIVGAIFSLMPDPVLGGATLLMFGTVAAAGIRIVSSQEIGRKETLVLAVSLSLGLGVELMPDVLKQAPEAIRSIFSSGITTGGLTAIVANMVIRVK”, the protein production result was “not failed”.
For “MKTEARILKECLAAAAPNCLHSILPPVVRDDQTRSMNKPMESYYHQFLEEFRLPLTNPVLVFSLVLFIILLAPIVSKRFNIPGTVGLILSGVLIGPHSLNLLEKSSAVELFSTIGLLYILLIAGLELDVNDFRKNRYKSALFGLLTFSIPIVLGYPVCRYLLNYPMSTSLLTASMFATHTLVAYPVVSRMGISKNRTVAITVAGTILSDTAVLILLAVIIGYSRGDINHEFWLHLVIALTLFSAIVFIVLPAIARWFFTKLENEKHAHYIFVLAALFFSAFLAKAAGLEPIVGAFAAGLALNPLIPGSSALMNRIEFIGNSLFIPFFLISVGMLVDLRIILSSPIALIIAALLTFVALAGKWLAALSTQKIFGYSAAHRRLIFGLSSSRAAATIAIALVGYRARILDLNILNAIIILILVTCIVSSLVTEKAAKEIVLEENDAAPEKEHAQGDADEQILLPIAENKPSERVLELAVMIREKRSLNPLTILTVVPNDHEAELNVKKAKKELAPTVDFAASFDTSLNIVATIDYNICSGISRAVKESQSNLIIFDWPSRQGFLGRMINDATESIVECTCKTTMICHLTRPLAIHRRIVVICPPFAEKEKGFGQWLRKMSRLSQELTIPLLFHCDRKSRLAIIETLKTSHSTSPVLYEVFKNFREWEDIASRKLHFREDDIVTFVCARRESISYKPFFDLVPEQLEKHVKDISKIMIYPEQFDSAIIEEEYADVVAPKSFPFGASTIRKIREEISGFMKKNQLQIRKKARGKTAATPKRFGFSRKEP” the value was “failed”; for “MKTFTLQDAGDIRRLLTERLMQSVNAGTVPWRQNIIRHGVPIHALSGQLFTGINVLLLWQSALQNGLTSNRWLTGDDLRSLGGSIIPGQRPTTIVRYTPSLSLFRVINIEQCDGLPTELRAGWPWPPAPVPGMERIEKWQRASQVPVLYRGQRPAVYLSESDRIELPGSDQGNLDSLTALLVSATGHPTRLGRSCFTGSDVPERDEYLQESLVADVGRAFLAALAGIPLAGTPMWNGELGSDPWILFKSASEAGKAVDWLEKQRLTTLPFDDVQHWQRLAAHLLTTHYGQQLDDTTLVCDSVVHQHLRYNISPGNAVNALARIYDWPRSDVAPALFILELNSVADAFASFSLNPGSLVVHRVASDIDDNKVVLEAPELETLFLPPPFAKSVDEVAANDEEEGGDPDDPGNLAALPWVRNQGRSNPHRATFIRQFQEIAPYENRWTVFSDFIHMSAAALHNRCHFVQEIEDDYLRRIKRYKKADQNRFPLLFNTLVEGMEFSASDFLGSVFMELELGDQRRGQYFTPYSVGYMMAKLQLADGLPALTSGERDFITVSDPACGAGGLIVAMAQAMLEAGFNPQKQMMAVCVDIDPVAAMMAYVQLALCGIPAMVIVGNSLSMEFRQTWRTPFWMMFGWERKWAREQERKAQQKVA”, “failed”.
Take “MKTINLSIFGLGNVGLNLLRIIRSFNEENRLGLKFNVVFVADSLHSYYNERIDIGKVISYKEKGSLDSLEYESISASEALARDFDIVVDATPASADGKKELAFYKETFENGKDVVTANKSGLANFWPEIMEYARSNNRRIRYEATVAGGVPLFSFIDYSVLPSRIKKFRGIVSLTINYFIRELANKREFDDVLSEATKLGIVEKNYKDDLTGLDAARKSVILCNHLYGSSYRLSDVFYEGILDQDRSFGKNERLVTETGIVNGKPSAESRIKSLDSNDYLLTLGKGSLGYQLQTDTNGTLNVSDLYDGPYETAGAVMNDLVILSMFTV”: the protein production result was “not failed”.
For “MKTIQPCSVEDIQSWLIDQFAQQLDVDPDDIDMEESFDNYDLNSSKALILLGRLEKWLGKELNPVLIFNYPTIAQLAKRLGELYL”, the protein production result is given as “not failed”.
For “MKTIRAILNGKKAGNPELRDAIMKMRDRGVDVQVRVTWESQDMPRLVKEAVTDGIERIVVAGGDGTVNEAASALIHIDHESRPELAIIPLGTANDFATANHIPDSIADALTLAVEGQALSVDCVKANDRCFINVAAAGFGAEVTAETPVELKNFLGGGAYTLTGVVKALGFKPYDGSITIEGGRYDGEMLLGAFCNSRLAGGGQQLAPNAMIDDGLMDLTLVRPFLPHELPKVIEEINNPSEKGEFVKHTRASWLEIDFPNPLPLNLDGEPYHSRKIRFEVQPKSLKLVLPKDCPCVTH” the value was “failed”.
For the sequence “MKTKSWIASLFYSSLCFSSSYAINLHQITITDPIMGSRTITYEQVGEFAVVEGDILIGKAENLKNQGAVITPKVGGSRWPNGVIPYEIAENLPFINKLAILQAIDHWQKNTNLEFVELTSKNRYDYRDYISFIPAEGTTCSSYVGRQGGKQEINLAPRCTTMNTVHEIGHALGMWHEQSRSDRNQYIRIVWENIDEEHKFNFDQHLTDGKDFGEYDYGSIMHYGRFAFSKNGQPTIIPLVDGVEIGQRTHLSEKDIAAVKAMYPET”, the protein production result is recorded as “failed”.
The value for “MKTLKVYIPGIKFPSISVTGNYCALNCAHCGRHYLEGMKKITRLNLVDKCVEMEKEGYVGCLLSGGMDSRLKVPLDKFKDEIREIKEKTRLKINAHVGFIDEDDLEWLKYIDVVSLDFVGDNEVIKRVYKIDKTVNDYLKILDILTKERIKVAPHITIGLDFGRIHWEYEAIDLLSEYPIDVLVLNILIPTPGTEMENVKVSMEEALNVVRYAREEFKGELSIGCMRPFGRWREEFDKRAILIGVDRITNPPRKVIEWAKQFRKVEIHFECCVI” was “failed”.
For “MKTLQTHRVLQALIGHFTPFLESGITELMINTEQELWLYKVNNTREKRGHALFDKAFLLRFCEQLASFRGLFFDEEHPTLNCSIPFTRYRVSANHFSITTNNQITLNIRVPRLKPLSLEDFTFKASDPKSLKDLALKGHNILISGETSSGKTSLLNALLDCVNKDERVVSVEDSQELDLKAFSNCVGLLVGKQENTRFNYEDALNMAMRLNPDRLIVGEIDTRNAALFLRLGNTGHKGMLSTIHANSAQNTLEALSLNLSMRYMYSLDKDLMRAYFKSAIDVIVHVNRINNERQIAEVLWTKEL” the value was “failed”; for “MKTNAGRFFEDYRLGETIAHAVPRTVSGGERALYHALYPARHALSSSDEFARACGLPAAPVDELMAFHLVFGKTVPDISLNAVANLGYAEGRWLKPVFPGDTLRAESTVIGLKENSNGASGVVWVRTRGLNQQGEAVLSYVRWVMVRKRDTAAPAPAPTVPELAGSVAASDLVIPEGLSFTDYDLTLAGEPHRWGDYAVGEKIDHVDGVTVEESEHMLATRLWQNTAKVHFDATNRPDGRRLIYGGHVISLARTLSFNGLANAQMIVALNAGAHANPCFAGDTVRAWSEVLDKAETADPGVGALRLRLVAMKHGTEPFVTRSEDGKYLPGVLLDLDYWALVPR”, “failed”.
For “MKTNEVLETIKARRSVRAYDRKQIPADDLNAILEAGAYAPSGMHYETWHFTAVCNTVKLEELNERIKGAFAKSDDKHLRERGHSETYCCYYHAPTLVIVSNEPKQWWAGMDCACAIENMFLAATSLGIASCWINQLGTTCDDPEVRAYLTSLGVPENHKVYGCVALGYKAEGALLKEKTVKAGTITIVE” the value was “not failed”; for “MKTPTRVSFEKKIHTPPSGDRDAERSPPKKFLRGLSGKVFRKTPEFKKQQMPTFGYIEESQFTPNLGLMMSKRGNIPKPLNLSKPISPPPSLKKTAGSVASGFSKTGQLSALQSPVNITSSNKYNIKATNLTTSLLRESISDSTTMCDTLSDINLTVMDEDYRIDGDSYYEEDSPTFMISLERNIKKCNSQFSPKRYIGEKCLICEESISSTFTGEKVVESTCSHTSHYNCYLMLFETLYFQGKFPECKICGEVSKPKDKDIVPEMVSKLLTGAGAHDDGPSSNMQQQWIDLKTARSFTGEFPQFTPQEQLIRTADISCDGFRTPRLSNSNQFEAVSYLDSPFLNSPFVNKMATTDPFDLSDDEKLDCDDEIDESAAEVWFSKTGGEHVMVSVKFQEMRTSDDLGVLQDVNHVDHEELEEREKEWKKKIDQYIETNVDKDSEFGSLILFDKLMYSDDGEQWVDNNLVILFSKFLVLFDFEEMKILGKIPRDQFYQVIKFNEDVLLCSLKSTNIPEIYLRFNENCEKWLLPKWKYCLENSSLETLPLSEIVSTVKELSHVNIIGALGAPPDVISAQSHDSRLPWKRLHSDTPLKLIVCLNLSHADGELYRKRVLKSVHQILDGLNTDDLLGIVVVGRDGSGVVGPFGTFIGMINKNWDGWTTFLDNLEVVNPNVFRDEKQQYKVTLQTCERLASTSAYVDTDDHIATGYAKQILVLNGSDVVDIEHDQKLKKAFDQLSYHWRYEISQRRMTPLNASIKQFLEELHTKRYLDVTLRLPQATFEQVYLGDMAAGEQKTRLIMDEHPHSSLIEIEYFDLVKQQRIHQTLEVPNL”, “failed”; for “MKTTRTCKINSITKEQTEALITLIRTFESAKRYSFNRLIEGESEKELIKKLQLKYLLNKRFCEDAVLQVQTILSSQKELLPVYLENNQKKLEKTLQKKMIMKVAGKTQKKFH”, “failed”.
For the sequence “MKTVGVVLSGCGVLDGAEIHESVLTMLALDRAGAEVLFFAPDKPQLHVINHITGEIVAEERNVLVESARIARGLITPLSAADPEVLDALIVPGGFGAAKNLCDFAIKGGECSVEPDLYKLIQLMHKSGKPIGLMCISPVMLPKLLGKPIRLTIGNDPDTIDAIEIMGGEHVICPADDVVIDLENKVVTTPAYMLAGSISEAAKGIDKLVTKVLDLTE”, the protein production result is “failed”.

Values taken from a protein production outcome set (Wang et al. 2014).
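Also: failed if final PepcDB status was selected cloned or expressed and not failed if soluble or beyond.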
